Source: patent US20220372138A1 (IOMX THERAPEUTICS, published 2022)
Numbering of substitutions follows the chain as printed.

T1: extracellular domain (ECD) of human IGSF11 (VSIG3), recombinant (human, UniProt Q5DX21 23-241)
T1 construct: biotinylated where captured on streptavidin; tags of the reagent not always stated; also called IGSF11 (ECD domain); ECD-IGSF11
T1 sequence: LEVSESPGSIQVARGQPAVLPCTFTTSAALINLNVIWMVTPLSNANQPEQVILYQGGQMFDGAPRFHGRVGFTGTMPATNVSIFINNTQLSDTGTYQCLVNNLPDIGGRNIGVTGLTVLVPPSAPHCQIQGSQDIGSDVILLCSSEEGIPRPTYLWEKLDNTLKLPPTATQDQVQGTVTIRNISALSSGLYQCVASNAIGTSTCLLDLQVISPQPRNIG

T2: ECD of murine IGSF11, recombinant biotinylated (mouse, UniProt P0C673 23-240)
T2 construct: whole entry named; also called Mouse IGSF11
T2 sequence: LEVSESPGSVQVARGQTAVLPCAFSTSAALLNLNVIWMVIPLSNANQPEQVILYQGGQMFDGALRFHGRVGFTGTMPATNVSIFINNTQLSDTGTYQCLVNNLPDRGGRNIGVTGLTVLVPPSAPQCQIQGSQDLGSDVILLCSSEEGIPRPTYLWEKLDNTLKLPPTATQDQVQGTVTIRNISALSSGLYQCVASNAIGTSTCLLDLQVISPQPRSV

T3: human IGSF11 (VSIG3) ECD, His-tagged (human, UniProt Q5DX21 23-241)
T3 construct: in part bought (SinoBiological 13094-H08H); also called HIS-IGSF11; IGSF11-HIS; not shown: His tag
T3 sequence: T1 sequence

B1: A-034 (IgG1 format) (antibody, V domains shown)
VH: QMQLVQSGGGLVKPGGSLRLSCAASGFTFSSYTMNWVRQAPGKGLEWVSSISSIGTYIYYADSVKGRFTISRDNAKNSLYLQMNSLRAEDTAVYYCARVLLSGSYYGYFDSWGQGTLVTVSS
VL: QSVLTQPPSVSGAPGQRVTISCTGSSSNIGAGYDVHWYQQLPGTAPKLFIYGNSNRPSGVPDRFSGSKSGTSASLAITGLQAEDEADYYCQSYDSSLSGYVFGTGTKVTVL
notes: human IgG1 format
B2: A-034 (scFv format) (scFv, V domains shown)
VH: B1 VH
VL: B1 VL
notes: scFv
B3: A-016 (scFv format) (scFv, V domains shown)
VH: QVQLQESGAEVKKPGASVKVSCKASGYTFTGYYMHWVRQAPGQGLEWMGGIIPIFGTANYAQKFQGRVTITADESTSTAYMELSSLRSEDTAVYYCAGAGMELTRSGAYYYYGMDVWGQGTTVTVSS
VL: QSALTQPASVSGSPGQSITISCTGTSSDIGGYTFVSWYQQHPGKAPKVMIHDVNNRPSGISNRFSGSKSGNTASLTISGLQAEDEADYYCSSVTSTNTYVFGTGTKVTVL
notes: scFv
B4: A-019 (scFv format) (scFv, V domains shown)
VH: QVQLVQSGAEVKKPGASVKVSCKASGYTFTGYYMHWVRQAPGQGLEWMGWINPNSGNTGYAQKFQGRVTMTRNTSISTAYMELSSLRSEDTAVYYCARGGQQQLVLDDYWGQGTLVTVSS
VL: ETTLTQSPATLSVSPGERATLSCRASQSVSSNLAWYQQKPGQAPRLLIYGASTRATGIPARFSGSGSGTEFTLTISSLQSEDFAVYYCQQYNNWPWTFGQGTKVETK
notes: scFv
B5: A-001 (scFv format) (scFv, V domains shown)
VH: EVQLVESGGGLVKPGGSLRLSCAASGFTFSSYSMNWVRQAPGKGLEWVSSISSSSSYIYYADSVKGRFTISRDNAKNSLYLQMNSLRAEDTAVYYCVRSIIVQALGITSVFDIWGQGTMVTVSS
VL: AIRLTQSPSSLSASVGDRVTISCRASQIISNHLNWYQQKPGKAPKLLIYAASRLQTGVPSRFSGSGSETDYTLTISSLQPEDFATYYCQQSYSNPRTFGHGTKVEIK
notes: scFv
B6: A-008 (scFv format) (scFv, V domains shown)
VH: QLQLQESGPGLVKPSETLSLTCTVSGGSISSSGYYWGWIRQPPGKGLEWIGSIYYSGSTYYNPSLKSRVTISVDTSKNQFSLKLSSVTAADTAVYYCARHRVRFGEFDAFDIWGQGTMVTVSS
VL: QAVLTQPPSVSGAPGERVTLSCTGTSSNVGADFDVHWYQQFPGTAPRLLIFGSDNRPSGVPDRFSGSKSGTSASLAITGLQVEDEADYYCQAYDVRLSGWVFGGGTKLTVL
notes: scFv
B7: A-026 (scFv format) (scFv, V domains shown)
VH: QVQLQESGPGLVKPSQTLSLTCTVSGGSISSGGYYWSWIRQHPGKGLEWIGYIYYSGSTYYNPSLKSRVTISVDTSKNQFSLKLSSVTAADTAVYYCASWSLGTSNHGWFDPWGQGTLVTVSS
VL: QSVLTQPPSASGTPGQRVTISCSGSSSNIGSNTVNWYQQLPGTAPKLLISDNNNRPSGVPDRFSGSKSGTSASLAITGLQAEDEADYYCQSYDSNLSGWVFGGGTKLTVL
notes: scFv
B8: A-023 (IgG1 format) (antibody, V domains shown)
VH: QVQLVQSGAEVKKPGSSVKVSCKASGGTFSSYAISWVRQAPGQGLEWMGGIIPIFGTANYAQKFQGRVTITADESTSTAYMELSSLRSEDTAVYYCARPKYSSGWFYYYGMDVWGQGTTVTVSS
VL: QSVLTQPPSVSAAPGQKVTISCSGSSSNIGNNYVSWYQQLPGTAPKLLIYDNNKRPSGIPDRFSGSKSGTSATLGITGLQTGDEADYYCGTWDSSLSVVFGGGTKLTVL
notes: human IgG1 format
B9: A-025 (IgG1 format) (antibody, V domains shown)
VH: QVQLVQSGAEVKKPGSSVKVSCKASGGTFSSYAISWVRQAPGQGLEWMGGIIPIFGTANYAQKFQGRVTITADESTSTAYMELTSLRSEDTAVYYCARGGWLRQNWFDPWGQGTLVTVSS
VL: SSELTQDPAVSVALGQTVRITCQGDSLRSYYASWYQQKPGQAPVLVIYGKNNRPSGIPDRFSGSSSGNTASLTITGAQAEDEADYYCNSRDSSGNHPRVFGGGTKLTVL
notes: human IgG1 format
B10: A-003 (IgG1 format) (antibody, V domains shown)
VH: VQLVQSGAEVKKPGSSVKVSCKASGGTFSSYAISWVRQAPGQGLEWMGGIIPIFGTANYAQKFQGRVTITADESTSTAYMELSSLRSEDTAVYYCASPRIQLWAAGGFDYWGQGTLVTVSS
VL: QSALTQPASVSGSPGQSITISCTGTSSDVGGYNLVSWYQQHPGKAPKLMIYDVSNRPSGVSNRFSGSKSGNTASLTISGLQAEDEADYYCSSFTTSTTLVFGGGTKLTVL
notes: human IgG1 format
B11: A-009 (IgG1 format) (antibody, V domains shown)
VH: B9 VH with T84S, G100R, W101G, L102F, R103G, Q104E, N105L, W106Y, P109Y
VL: ETTLTQSPATLSVSPGERATLSCRASQGVRSNIAWYQQKPGQAPRLLIYDSSTRATGIPARFSGSGSGTEFTLTISSLQSEDFAVYSCQQYKNWPRTFGQGTKVEIK
notes: human IgG1 format
B12: A-029 (IgG1 format) (antibody, V domains shown)
VH: QVQLVQSGAEVKKPGSSVKVSCKASGGTFSSYAISWVRQAPGQGLEWMGGIIPIFGTANYAQKFQGRVTITADESTGTAYMELSSLRSEDTAVYYCARSYYYYYGMDVWGQGTTVTVSS
VL: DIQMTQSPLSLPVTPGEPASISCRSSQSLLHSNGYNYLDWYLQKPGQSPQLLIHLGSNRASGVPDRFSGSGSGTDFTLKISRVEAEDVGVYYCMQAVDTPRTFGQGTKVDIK
notes: human IgG1 format
B13: A-033 (IgG1 format) (antibody, V domains shown)
VH: QVQLVQSGAEVKKPGASVKVSCKASGYTFTSYGISWVRQAPGQGLEWMGWISAYNGNTNYAQKLQGRVTMTTDTSTSTAYMELRSLRSDDTAVYYCARDHSIVGATTFDYWGQGTLVTVSS
VL: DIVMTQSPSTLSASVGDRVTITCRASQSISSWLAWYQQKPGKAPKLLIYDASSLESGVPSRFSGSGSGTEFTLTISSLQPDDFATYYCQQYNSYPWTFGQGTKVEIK
notes: human IgG1 format
B14: A-008 (IgG1 format) (antibody, V domains shown)
VH: B6 VH
VL: B6 VL
notes: human IgG1 format

Biological target: T1, extracellular domain (ECD) of human …
Experiment: SPR

| Binder | Kd |
| --- | --- |
| B1 | 250 to 500 nM |

Biological target: T2, ECD of murine IGSF11, recombinant …
Experiment: ELISA RFU 0.5-1.0

| Binder | ELISA binding signal (RFU) |
| --- | --- |
| B2 | 0.5 to 1 rfu |
| B3 | 0.5 to 1 rfu |
| B4 | 0.5 to 1 rfu |

Biological target: T2, ECD of murine IGSF11, recombinant …
Experiment: ELISA RFU>1.0

| Binder | ELISA binding signal (RFU) |
| --- | --- |
| B5 | > 1 rfu |
| B6 | > 1 rfu |
| B7 | > 1 rfu |

Biological target: T1, extracellular domain (ECD) of human …
Experiment: ELISA RFU>1.0

| Binder | ELISA binding signal (RFU) |
| --- | --- |
| B5 | > 1 rfu |
| B2 | > 1 rfu |
| B6 | > 1 rfu |
| B3 | > 1 rfu |
| B4 | > 1 rfu |
| B7 | > 1 rfu |

Biological target: T3, human IGSF11 (VSIG3) ECD, His-tagged
Experiment: IgG1 ELISA EC50 0.05-1 nM

| Binder | EC50 |
| --- | --- |
| B1 | 0.05 to 1 nM |
| B8 | 0.05 to 1 nM |
| B9 | 0.05 to 1 nM |
| B10 | 0.05 to 1 nM |
| B11 | 0.05 to 1 nM |
| B12 | 0.05 to 1 nM |

Biological target: T3, human IGSF11 (VSIG3) ECD, His-tagged
Experiment: IgG1 ELISA EC50 0.02-0.05 nM

| Binder | EC50 |
| --- | --- |
| B13 | 0.02 to 0.05 nM |
| B14 | 0.02 to 0.05 nM |
